Test results taken from a protein production outcome set (Wang et al. 2014).

Assay: label from the status in PepcDB records
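Note: failed if final PepcDB status was selected cloned or expressed and not failed if soluble or beyond.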

Sequence | protein production
MSRKLQDSAFRLLKKAAYDIDHDRYKKAFENLDKVEKIEKEVNNPEISYHLLFFKGFAKYRIDELEESLALFGKALEISWDLFSKEPEKEDYRSFMRDTIGSIGDILLKLEDPVKAREYISPMKGIFEKTVLGFEKLLESDPENPEYLEDFLKTIEHIGLCFEAGELTGDAVPLFDKKFDLIEKLLKSETEISEHLSSLDDSLMNFGRMCEGEEYLEEEYIEEAKRVYDRAIEIYGKVLDKDPENSETKVYLSYIYRYMAGMYSDQENLVKAEECYKEALGLLESEIENEPENIPVSENIEVSENISVPKNILFSMAIADMYKDSGLIFSDTEDTTKARDYYTKARETFRGLINKYPDLLEADKNLASSLDELAELFSEIGDFESAEMCYKDELNIYENLLQKEPENPENPEYSLKLSDIYRELGDLFAEEEEIEKARAYYDKEIEIYENLHPAEADKLMLEANKADTWNQIGRLYAEEEPETAVQYHERALPIFLEAFESDPTSEFFHEELLETLTVLGTLFKENREFEKAIRMYERVLEVQKQLLEIMPPASCHDHDHDHNLNHSHNLNHSHNLNHTHDLNHDHDLNHDLDHDHEMDHDHALEHCHDLDIETTYFELGVLHSEIGDEEKASVYHRQALERFEQIIAEQSGNPEILILTSGKAFFSGMSLLEKLESENKDSSIARKYYELALRTIEKLYEAYPMNLKLQEMLASFAEQIGDIYRDADKLEETIQEYEYAYRSLKILYENDPENPKHLHHMLGALNNIGIGYSVTDQQEKGKECFEKALALNESLAKSNPEDLNPLRRNFLLFSNYANLLEELGDSKTAKEYRKKAEELDAKLTEEDPEWTSLVEEL | failed
TGFVGEMYGTGDILRSVSIPSETDKPIIVELAVAAMEELVRMAQTGDPLWLSTDNSVEILNEEEYFRTFPRGIGPKPLGLRSEASRQSAVVIMNHINLVEILMDVNQWSCVFSGIVSRALTLEVLSTGVAGNYNGALQVMTAEFQVPSPLVPTRENYFVRYCKQHSDGSWAVVDVSLDSLRPSTPILRTRRRPSGCLIQELPNGYSKVTWIEHMEVDDRSVHNMYKPLVQSGLAFGAKRWVATLERQCERLASSMASNIPGDLSVITSPEGRKSMLKLAERMVMSFCSGVGASTAHAWTTMSTTGSDDVRVMTRKSMV | failed
MFRQSKRRIASRKNFSSYDDIVKSELDVGNTNAANQIILSSSSSEEEKKLYARLYESKLSFYDLPPQGEITLEQFEIWAIDRLKILLEIESCLSRNKSIKEIETIIKPQFQKLLPFNTESLEDRKKDYYSHFILRLCFCRSKELREKFVRAETFLFKIRFNMLTSTDQTKFVQSLDLPLLQFISNEEKAELSHQLYQTVSASLQFQLNLNEEHQRKQYFQQEKFIKLPFENVIELVGNRLVFLKDGYAYLPQFQQLNLLSNEFASKLNQELIKTYQYLPRLNEDDRLLPILNHLSSGYTIADFNQQKANQFSENVDDEINAQSVWSEEISSNYPLCIKNLMEGLKKNHHLRYYGRQQLSLFLKGIGLSADEALKFWSEAFTRNGNMTMEKFNKEYRYSFRHNYGLEGNRINYKPWDCHTILSKPRPGRGDYHGCPFRDWSHERLSAELRSMKLTQAQIISVLDSCQKGEYTIACTKVFEMTHNSASADLEIGEQTHIAHPNLYFERSRQLQKKQQKLEKEKLFNNGNH | failed
QDVPVTQVMTPRPVVFRVDATMTINEFLDKHKDTPFSRPLVYSEQKDNIIGFVHRLELFKMQQSGSGQKQLGAVMRPIQVVLNNTALPKVFDQMMTHRLQLALVVDEYGTVLGLVTLEDIFEHLVGE | not failed
MGSSHHHHHHSSGRENLYFQGMRLKSEMFVSALIRRVFAAGGFAAVEKKGAEAAGAIFVRQRLRDGRENLYGPAPQSFADDEDIMRAERRFETRLAGVEGEEIAALLERERRFDSDLWVVEIETDEIGTLLTLVDQPQA | not failed
MMTKKERIAIQRSMAEEALGKLKAIRQLCGAEDSSDSSDMQEVEIWTNRIKELEDWLWGESPIA | not failed
MHIHILGICGTFMGSLALLARALGHTVTGSDANIYPPMSTQLEQAGVTIEEGYLIAHLQPAPDLVVVGNAMKRGMDVIEYMLDTGLRYTSGPQFLSEQVLQSRHVIAVAGTHGKTTTTTMLAWILHYAGIDAGFLIGGVPLVNTTDTNLQQVFAHSSYLGTEKDDSDNSVNTGYFVIEADEYDSAFFDKRSKFVHYRPRTAILNNLEFDHADIFADLDAIQTQFHHMVRMIPSTGKIIMPAATISLEDTLAKGVWTPIWRTSVIDSTISSVRREDSPLENSQAENSSDWQAELISADGSQFTVSFNDNKEATALVNWSMSGLHNVNNALVAIAAAYNIGVSVKTACAALSAFAGIKRRMELIGDVNDILVFDDFAHHPTAITTTLDGAKKKLADRRLWAIIEPRSNTMKMGIHQDSLAQSATLADHTLWYEPTGLEWGLKEVIDNATIANPSIGSQQVLSSVDDIIKHICTHAKAGDAIVIMSNGGFEGIHQRLLTALGNIVAIL | not failed
MKVKIGLKCSDCEDINYSTTKNAKTNTEKLELKKFCPRENKHTLHKEIKLKS | failed
MASLRLPAQLVTRGNLIHHNSSSSSSGRLSWRRSLTPENTIPLFPSSSSSSLNRERSIVVPVTCSAAAVNLAPGTPVRPTSILVVGATGTLGRQIVRRALDEGYDVRCLVRPRPAPADFLRDWGATVVNADLSKPETIPATLVGIHTVIDCATGRPEEPIKTVDWEGKVALIQCAKAMGIQKYVFYSIHNCDKHPEVPLMEIKYCTEKFLQESGLNHITIRLCGFMQGLIGQYAVPILEEKSVWGTDAPTRVAYMDTQDIARLTLIALRNEKINGKLLTFAGPRAWTTQEVITLCERLAGQDANVTTVPVSVLRVTRQLTRFFQWTNDVADRLAFSEVLSSDTVFSAPMTETNSLLGVDQKDMVTLEKYLQDYFSNILKKLKDLKAQSKQSDIYF | failed
MLRGLRIIAENKIGVLRDLTTIIAEEGGNITFAQTFLIKHGEHEGKALIYFEIEGGDFEKILERVKTFDYIIEIEEEESFERVFGKRVIILGGGALVSQVAIGAISEADRHNLRGERISVDTMPVVGEEEIAEAVKAVSRLHRAEVLVLAGGIMGGKITEEVKKLRKSGIRVISLSMFGSVPDVADVVISDPVMAGTLAVMHISEKAKFDLDRVKGRRI | not failed
MSNEISLCMIVKNEEKYLFQCLDSVKDIVDEIIIVDTGSTDKTVEIAKKFGAEIHYFMWNNSFSDARNESLKYATKDWIFIMDGDDEFSKDDKEKFKELVKNNLKEDCLYYFETLSYCGEFVDSSNISVNLNPRLFKNNYGYKYEGIVHNQLINTEKEIKNVIYNIRIYHYGYLEDVSKKKNKRGRNIPLLKKQLKENPDDRFAHFNIGNEYYAIGDLQKALTHYCEAYKDFNPSSGFGFVLITRLIVTNFGIGKHEKAIEFADIGLEYYPNATDIYFLKALIYEATRRPTLAIKALKRCIEMGEPPSNLKLYYGTWSFKALYELVNIYMGLKDYEEAYKYCIETIKAKNDFVNPVYVIGHILKERKTPIEEFKVELEKLFSDYPKAYFFIANILYDEGYFNEALEYTDKCEKEGLNSDAILDLKLKAMIRAQKFNECAEANYFAKESVFYFNASMYKVLSLVLIGKFKEALKDLEIFKDGKLKRQDKKELEVYSQFVKLFMNEETKVLSEDKEDKEYTGFILDICDILLSNKLYDEFEKALNLFNLISDENVLLNLSKLYYKHGIESMAKKEAIRSIKEFEVFDNEILDILR | failed
MATLPAAETWIDGGGGVGADAVNLTASLAAGAATGAVETGWLQLLDQAGNLSSSPSALGLPVASPAPSQPWANLTNQFVQPSWRIALWSLAYGVVVAVAVLGNLIVIWIILAHKRMRTVTNYFLVNLAFSDASMAAFNTLVNFIYALHSEWYFGANYCRFQNFFPITAVFASIYSMTAIAVDRYMAIIDPLKPRLSATATKIVIGSIWILAFLLAFPQCLYSKTKVMPGRTLCFVQWPEGPKQHFTYHIIVIILVYCFPLLIMGITYTIVGITLWGGEIPGDTCDKYHEQLKAKRKVVKMMIIVVMTFAICWLPYHIYFILTAIYQQLNRWKYIQQVYLASFWLAMSSTMYNPIIYCCLNKRFRAGFKRAFRWCPFIKVSSYDELELKTTRFHPNRQSSMYTVTRMESMTVVFDPNDADTTRSSRKKRATPRDPSFNGCSRRNSKSASATSSFISSPYTSVDEYS | failed
PEQHRLRYQSLKQQLDDYYQEVTVQNYLDLTTRSHAFDQWLNNNIQLDWVKATVVKDAPDKIRAKANKEQHLNFQLIKHLEKPEDNVDLISAYFVPEKQGAKHLSDMAQDGIKVRVLTNSFKANDVPVVHAFYAKYRQELLENGVQLYEFLPTLEKEELDKYTDELVKKAKVSIKGLSRSSLHAKMMALDQKQVFIGSFNFDPRSAYLNTEIGVILNSPPLAMAVHQTMDQQLTHYAYKLVLDANHKINWYRQTS | failed
